The source of these data is publication PMC9467613 (mAbs, 2022).

As usually defined, the Kd is a measure of binding affinity in units of concentration. In general, koff refers to a measure of how fast the partners let go of each other. As usually defined, the kon is the second-order rate constant of association.

Some targets named below: B05; G05; A06; B01.
Holding throughout (test): SPR
Background: In SPR one partner is held on a chip, and binding of the other changes the refractive index at the surface.

In test [1] the target is B7-H4 purified monomeric recombinant human protein (Homo sapiens, UniProt Q7Z7D3).

B1: B7-H4 purified monomeric recombinant human protein (natural protein)
chain: LIIGFGISGRHSITVTTVASAGNIGEDGILSCTFEPDIKLSDIVIQWLKEGVLGLVHEFKEGKDELSEQDEMFRGRTAVFADQVIVGNASLRLKNVQLTDAGTYKCYIITSKGKGNANLEYKTGAFSMPEVNVDYNASSETLRCEAPRWFPQPTVVWASQVDQGANFSEVSNTSFELNSENVTMKVVSVLYNVTINNTYSCMIENDIAKATGDIKVTESEIKRRSHLQLLNSKAS
For the molecule B1, the Kd is under 0.068 nM with B05, under 0.063 nM in the test with G05, under 0.034 nM with A06 and under 0.032 nM with B01. In addition, the koff with B05, with G05, with A06 and with B01 was under 1e-05 s⁻¹ each time.

B2: A04 (scFv, V domains shown)
VH: EVQLVESGGGVVQPGRSLRLSCAASGFTFSSRSMNWVRQAPGKGLEWVSAISGSGDTTYYADSVKGRFTISRDNSKNTLYLQMNSLRAEDTAVYYCARKRWYGMDVWGQGTTVTVSS
VL: SYELTQPPSVSVAPGKTARITCGGNNIGSKSVHWYQQKPGQAPVLVVYDDSDRPSGIPERFSGSNSGNTATLTISRVEAGDEADYYCQVWDRGMIFGTGTKLTVL
As to B2, in test [1], the Kd came out at 0.069 nM, the koff stood at 2.1e-05 s⁻¹ and the kon was 310000 M⁻¹ s⁻¹.

B3: parental antibody against B7-H4, scFv-Fc (scFv, V domains shown)
VH: EVQLVESGGGVVQPGRSLRLSCAASGFTFSSYSMNWVRQAPGKGLEWVSAISGSGGSTYYADSVKGRFTISRDNSKNTLYLQMNSLRAEDTAVYYCARKRWYGMDVWGQGTTVTVSS
VL: SYELTQPPSVSVAPGKTARITCGGNNIGSKSVHWYQQKPGQAPVLVVYDDSDRPSGIPERFSGSNSGNTATLTISRVEAGDEADYYCQVWDSRTYVFGTGTKLTVL
Regarding B3, in test [1], the Kd came to 7.43 nM, the koff was found to be 0.0033 s⁻¹ and the kon was 450000 M⁻¹ s⁻¹.
